Substrate: CC(C)(O/N=C(\C(=O)N[C@@H]1C(=O)N2C(C(=O)[O-])=C(C[n+]3ccccc3)CS[C@H]12)c1csc(N)n1)C(=O)O
Assay: Substrate activity at Enterobacter cloacae beta lactamase P99 expressed in Escherichia coli AS226-51 cells by UV spectrophotometric method

B1: Beta-lactamase (Enterobacter cloacae), P05364 (protein)
chain: MMRKSLCCALLLGISCSALATPVSEKQLAEVVANTITPLMKAQSVPGMAVAVIYQGKPHYYTFGKADIAANKPVTPQTLFELGSISKTFTGVLGGDAIARGEISLDDAVTRYWPQLTGKQWQGIRMLDLATYTAGGLPLQVPDEVTDNASLLRFYQNWQPQWKPGTTRLYANASIGLFGALAVKPSGMPYEQAMTTRVLKPLKLDHTWINVPKAEEAHYAWGYRDGKAVRVSPGMLDAQAYGVKTNVQDMANWVMANMAPENVADASLKQGIALAQSRYWRIGSMYQGLGWEMLNWPVEANTVVEGSDSKVALAPLPVAEVNPPAPPVKASWVHKTGSTGGFGSYVAFIPEKQIGIVMLANTSYPNPARVEAAYHILEALQ
kcat: 7 ×10⁻³ /s

Reference: ChEMBL document CHEMBL3856203, “β-Lactamases: Why and How” (J Med Chem, 2016)
